The values below come from paper PMC3542337.

The target of the experiment is E18A DJ-1-FLAG (in HeLa cells) (human) (UniProt Q99497). Put plainly: cross-linking; HeLa cells transfected with FLAG-tagged DJ-1, without or with 20 uM CCCP for 7 hrs; cell extracts treated with 100 uM DSS for 10 min; Western blot with anti-FLAG.

As for “E18A DJ-1-FLAG (in HeLa cells) (from UniProt Q99497 1-189) (natural protein)”, the ratio of dimer (cells treated with CCCP) amounted to 68.7 and the ratio of dimer (cells without CCCP) is 57.2.
